This experiment is described as follows: In vitro glucosylation of oripavine and nororipavine by purified UGTs. The class given is biochemical. To be noted: for preference for nororipavine glucosylation compared to oripavine glucosylation: purified UGT, 500 μM substrate, overnight at 30° C., HPLC. The method, then:
Glucosylation samples of a 20 μL total reaction volume for each UGT to be tested were prepared in 96-well microtiter plates as follows:
The microtiter plate was sealed with an adhesive seal, spun shortly and the glucosylation samples were incubated overnight at 30° C. After incubation, glucosylation reaction was terminated by adding 3 volumes (60 μL) of ice-cold 100% methanol the reaction volume and mixing well, followed by centrifugation of the plate at 3000 rpm for 5 min at 4° C. and analysis by HPLC.
The 72UGTs of Table 5 were tested in vitro to using the test setup of example 3 identify those having having specificity toward nororipavine.

The mark [1] stands for this setting: 72UGTs, test setup of example 3, FIG. 8.

This note sets out measurements from US20240150805A1, “Glycosylated Opioids” (River Stone Biotech ApS, priority 2021, published 2024).

B1: Qs72S_1: subfamily 72 UGT (glycosyltransferase) from Quercus suber (protein)
chain: MEQKPHIALLPSPGMGHLIPLVEFAKQFVLHHDFHITCIIPVLGSPSKAMKAVLQALPTTIDHVFLPPVILEEEEIKGLKFEVQTILTLTRSLPPLREVLKTTRFSAFVVDPFGIDALDIAKELNISPYIFFPSNAFALSLIFHLPKLDETVSCEYRDLPEPLKLPGCIPIHGRDLIEPVQDRTSELYKMFLRNAKRFRLAEGIIVNTFMELEGSAIKALLDEEAKNLPLYPIGPIQSGSSNLQVDKSVSDCLRWLDNQPHGSVLFVCFGSGGTLSYDQTNELALGLELSGQKFLWVVRTPNNESADAAYLSDQILDNNPLDFLPKGFVERTEGQGLAVPSWAPQAQVLSHGSTGGFLTHCGWNSTLESIMQGIPLIAWPLYAEQKMNAPLLAEDLKVALRPKTNKSGLIDQEEIAKVVKGLMIGEEGKKVYNRMKDIKMAAEKALSADGSSTKALSELASQWKNHPGF
modifications: Quercus suber
notes: subfamily 72 UGT (glycosyltransferase) from Quercus suber
Take B1: the “preference for nororipavine glucosylation compared to oripavine glucosylation” value (from here on “preference … compared to oripavine glucosylation”) is reported as “particularly strong preference for Nororipavine glucosylation”. For the same molecule, under setting [1], the glucosylation activity entry is on record as “high activity” and the “specificity for nororipavine compared to oripavine” value (“specificity … compared to oripavine” for short) is “particularly high specificity”.

B2: PWA37695: subfamily 73 UGT (protein, listed as Artemisia annua)
chain: MVAPSTELHFVMFPLMAQGHIVPMVDIARILAEKGATVTIFATPLVANRFRPVISRAIEAKLKIQILELELQVAKVGLPEGCQSFEKLPSSDSSAKLFAAMDLLEQPAEDLVRKLSPPPDCIISDFLFPWTTDMARRFNIPRLVFHGPGCFWLVCMHAVFSSDKFKTIKLEEKFMLPGLPDQVEVTKLQITGTKEIKPEQMGFWVRATEAEKAAYGTVVHTFYELEPEYVKEYSKVKDTKVWCIGPVALSNKANLDIAERGNKAAINEHDCLKWLDEKEPGSVFYVCLGSITRLSTEQAIEIALGLESTNQPFLWFLRNKTQELEKWFSEVGFEERVKDRGLIVHGWAPQILILSHCAVGGFLTHCGWNSTLEGVSFGVPMVTWPHFADQFLNETFIVEILKIGVRIGVDIPELYGEEDKLEALVKKEDVKRAVECLMDKEDKEAKQRRKRARKLAEMAKRAMAEGGSSYVNVSSLIQDITEFRNTQRLNRLHV
Consider B2, for which the “preference … compared to oripavine glucosylation” value is “very strong preference for oripavine glucosylation”.

B3: XP_023905565: subfamily 72 UGT, sequence homolog of Qs72S_1 (protein)
chain: MEQKPHIALLPSPGMGHLVPLVELAKLLLLHHDFHITCIIPVLGSPSKAMKAVLQALPTSIDHVFLPPVILEEEEIKGLKLEVQAMLTLTRSLPPLRDVLKSTRFSAFVVDPFGIDALDIAKELNISPYIFFPSNAFALSLVLHLPKLDETVSCEYRDLPEPIKLPGCITIHGRDLLEPVQDRTSELYKMFLSNTKRYRLAEGIIVNTFMELEGSAIKALLEEEAKNLPLFPVGPIQSGSSNQVDKSESDCLRWLDNQPHGSVLFVCFGSGGTLSYDQTNELALGLELSGQKFIWVVRTPNNESADATYLSDQTLGNNPLAFLPKGFVERTKGQGLVVPFWAPQAQVLSHGSTGGFLTHCGWNSTLESIMQGIPLIVWPLFAEQKMNAALLAEDLKVALRPKTNKNGRIDREEITKVVKGLMVGEEGKKVRNRMKDIKIAAEKALSADGSSTKALSKLATQWKNHSDF
modifications: Quercus suber
Consider B3, for which the “preference … compared to oripavine glucosylation” value is given as “particularly strong preference for Nororipavine glucosylation”.

B4: XP_023876189: subfamily 72 UGT, sequence homolog of Qs72S_1 (protein)
chain: MEQKPHIAILPSPGMGHLIPFVEFAKLLLLHHDFHITCIIPTIGSPSKAMREVLQALPTSIDHVFLPPVSLEELGGVKPGIQITLTMIRSLPPLREVLTSLVATTRLVALVVDLFGTDALDVAKELNVSPYIFYPTNAMVVSLVLHLPKLDETVSCEYRDLPEPVKLPGCVPIHGRDLLDPIQDRTTELYKLFLRGAKWLRLVEGIIVNTFMELDGNVIKALEDEEAKSGTIYTIGPIIQSSSTKHVEGSDGLRWLDNQPRGSVLFVCFGSGGTLSYDQMKELALGLELSKQKFLWVVRSPNNELAQAAYFSDQTLDNNPLSFLPVGFIERTKEQGLVVPSWAPQAQVLSHDSTGGFLSHCGWNSTLESIMQGIPLIAWPLFAEQRMNALLLTEDLKVALRPKANEKNLVDREEIAKVIKSLMVGEDGKKIHSRMKDLKIAAEKALSPNGPSTKALADLASHWTNQSNS
modifications: Quercus suber
Regarding B4, the “preference … compared to oripavine glucosylation” value is recorded as “particularly strong preference for Nororipavine glucosylation”. Under setting [1], the “specificity … compared to oripavine” value was “particularly high specificity”.

B5: XP_023875154: subfamily 72 UGT, sequence homolog of Qs72S_1 (protein)
chain: MLSKMEQKPHIALLPSLGMGHLIPLVEFAKQFVLHHDFHITCIIPVLGSPSKAMKAVLQALPTAIDHVFLPPVKLEEEEIKGLKFEVQTILTLTRSLPPLREVLKSTRFSAFVVDPFGIDALDIAKELNISPYIFFPTNAFALSLIFHLPKLDETVSCEYRDLPEPLKLPGCIPIHGRDLLEPVQDRTSELYKMFLRNAKRFRLAEGIIVNTFMELEGSAIKALLDEEAKNLPLYPIGPIQSGSSNQVDKSESDCLRWLDNQPHGSVLFVCFGSGGTLSYDQTNELALGLELSGQKFLWVVRTPNNESADAAYLSDQTLNNNLLAFLPKGFVERTEGQGLAVPSWAPQAQVLSHGSTGGFLTHCGWNSTLESIMQGIPLIAWPLYAEQKMNAPLLAEDLKVALRPKTNKNGLIDREEIAKVVKGLMIGEEGKKVYNRMKDIKMAAEKALSADGSSTKALSELASQWKNHPGF
modifications: Quercus suber
Turning to B5, the “preference … compared to oripavine glucosylation” value is “particularly strong preference for Nororipavine glucosylation”. Under setting [1], the “specificity … compared to oripavine” value is reported as “particularly high specificity”.

B6: KAF3968553: subfamily 72 UGT, sequence homolog of Qs72S_1 (protein, listed as Castanea mollissima)
chain: MEQKPHIALLPSPGMGHLIPLVEFAKLFVLHHDFRITCIIPVLGSPSKAMKAVLQALPTTIDHVFLPPVILEEEEIKGLKFEVQTILTLTRSLPPLRDVLKSTRFSAFVVDPFGIDALDIAKELKISPYIFFPTNAFVLSLMFHLPKLDETVSCEYRDLPEPLKLPGCIPIHGRDLIEPVQDRTSELYKMFLRNVKRFRLAEGIIVNTFMELEGSAIKALLDEEAKNLPLYPIGPIQSGSSNLQVDKSESDCLRWLDNQPRGSVLFVCFGSGGTLSYDQTNELALGLELSGQKFLWVVRTPDNESADAAYLSDQTLDNNPLAFLPKGFVERTEGQGLAVPSWAPQAQVLSHGSTGGFLTHCGWNSTLESIMQGIPLIAWPLYAEQKMNAPLLAEDLKVALRPKTNKNGLIDREEIAKVVKGLMVGEEGKKVHNRMKDIKIAAEKALSADGSSTKTLSELASQWKNHPGF
As to B6, the “preference … compared to oripavine glucosylation” value is “particularly strong preference for Nororipavine glucosylation”. The “specificity … compared to oripavine” value under setting [1] is on record as “particularly high specificity”.

B7: XP_030967178: subfamily 72 UGT, sequence homolog of Qs72S_1 (protein, listed as Quercus lobata)
chain: MEQKPHIALLPSPGMGHLIPLVELAKLLLLHHDFHITCIIPVLGSPSKAMKAVLQALPTSIDNVFLPPVILEEEEIKGLKLEVQAMLTLTRSLPPLRDVLKSTRFSAFVVDPFGIDALDIAKELNISPYIFFSSNAFALSLVLHLPKLDETVPCEYRDLPEPVKLPGCIPIHGRDLIEPVQDRTSELYKMFLTNAKRYRLAEGIIVNTFMELEGSAIKAMLEEEAKNLPLFPVGPIQSGSSNQVDKLESDCLSWLDNQPHGSVLFVCFGSGGTLSYEQTNELALGLELSGQKFIWVVRTPNNESADATYLSDQNLGDNPLAFLPKGFVERTKGQGLVVPLWAPQAQVLSHGSTGGFLTHCGWNSTLESIMQGIPLIVWPLFAEQKMNAALLAEDLKVALRPKTDKNGLIDREEIAKVVKGLMVGEEGKKVHNRMEDIKIAAEKALSADGSSTKALSKLATQWKNHPDF
Regarding B7, the “preference … compared to oripavine glucosylation” value is given as “particularly strong preference for Nororipavine glucosylation”. Under setting [1], the “specificity … compared to oripavine” value was “particularly high specificity”.

B8: SrUGT71E1: subfamily 71 UGT from Stevia rebaudiana (protein, listed as Stevia rebaudiana)
chain: MSTSELVFIPSPGAGHLPPTVELAKLLLHRDQRLSVTIIVMNLWLGPKHNTEARPCVPSLRFVDIPCDESTMALISPNTFISAFVEHHKPRVRDIVRGIIESDSVRLAGFVLDMFCMPMSDVANEFGVPSYNYFTSGAATLGLMFHLQWKRDHEGYDATELKNSDTELSVPSYVNPVPAKVLPEVVLDKEGGSKMFLDLAERIRESKGIIVNSCQAIERHALEYLSSNNNGIPPVFPVGPILNLENKKDDAKTDEIMRWLNEQPESSVVFLCFGSMGSFNEKQVKEIAVAIERSGHRFLWSLRRPTPKEKIEFPKEYENLEEVLPEGFLKRTSSIGKVIGWAPQMAVLSHPSVGGFVSHCGWNSTLESMWCGVPMAAWPLYAEQTLNAFLLVVELGLAAEIRMDYRTDTKAGYDGGMEVTVEEIEDGIRKLMSDGEIRNKVKDVKEKSRAAVVEGGSSYASIGKFIEHVSNVTI
With B8, the “preference … compared to oripavine glucosylation” value was “preference for glucosylation of nororipavine”.

B9: KAF3968554: subfamily 72 UGT, sequence homolog of Qs72S_1 (protein, listed as Castanea mollissima)
chain: MEQKPHIGILPSPGMGHLIPLVEFAKLLVHHHDFNITCIIPVLGSPSKAMKAVLHALPTTIDHVFLPPVILEEEEMKGPRFEVQTILTLTRSLPPLRDVLKSTRFSAFVVDPFGIDALDIAKELNISPYIFFPTNAFALSLIFHLPKLDETVSCEYRDLPEPLKLPGCIPIHGRDLAEPFQNRTSESYKMFLRIAKRFRLAEGIIVNTFMGLEGSAIKALLEEEAKNLPLYPVGPIQSGSSNQVEESDCLRWLGNQPHGSVLFVCFGSGGTLSYDQTNELALGLELSGQKFLWVVRTPNNESADAAYLSDQTLYNNPLAFLPKGFVERTEGQGLAVPSWAPQAQVLSHGSTGGFLTHCGWNSSLESIMQGIPLIAWPLYAEQKMNAVLLAEDLKVALRPKTNKNGLIDREEIAKVVKGLMDGEEGKKVRNRMKDIKIAAEKALNVDGSSTKTLSKLASKWKNHSSF
Regarding B9, the “preference … compared to oripavine glucosylation” value is recorded as “particularly strong preference for Nororipavine glucosylation”.
